Patent US20120324602A1

Columns and labels:
[1] = target: T1, ATASE (Gln Phosphoribosyl Pyrophospate Amidotransferase 1) (Arabidopsis thaliana); assay: TAP-MS, N-terminal GS tag
T1 sequence (Q9SI61 59-566, looked up): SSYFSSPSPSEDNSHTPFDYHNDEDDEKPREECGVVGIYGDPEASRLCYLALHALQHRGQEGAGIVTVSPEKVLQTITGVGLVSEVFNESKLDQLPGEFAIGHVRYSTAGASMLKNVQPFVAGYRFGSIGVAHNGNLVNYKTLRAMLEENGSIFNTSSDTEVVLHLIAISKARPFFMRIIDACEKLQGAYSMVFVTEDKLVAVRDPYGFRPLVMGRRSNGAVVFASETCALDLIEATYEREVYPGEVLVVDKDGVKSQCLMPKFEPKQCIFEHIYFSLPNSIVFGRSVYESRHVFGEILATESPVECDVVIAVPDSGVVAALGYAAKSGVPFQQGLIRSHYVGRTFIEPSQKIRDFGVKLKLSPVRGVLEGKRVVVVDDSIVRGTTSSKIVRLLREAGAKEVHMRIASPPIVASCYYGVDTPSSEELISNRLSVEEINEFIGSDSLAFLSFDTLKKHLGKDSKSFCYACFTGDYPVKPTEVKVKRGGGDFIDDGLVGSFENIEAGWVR

[2] = target: G2484-1, agenet domain-containing protein (Arabidopsis thaliana); assay: TAP-MS, N-terminal GS tag
[3] = target: T2, GAD (Glutamate decarboxylase); calmodulin binding (Arabidopsis thaliana); assay: TAP-MS, N-terminal GS tag
T2 sequence (Q42521 1-502, looked up): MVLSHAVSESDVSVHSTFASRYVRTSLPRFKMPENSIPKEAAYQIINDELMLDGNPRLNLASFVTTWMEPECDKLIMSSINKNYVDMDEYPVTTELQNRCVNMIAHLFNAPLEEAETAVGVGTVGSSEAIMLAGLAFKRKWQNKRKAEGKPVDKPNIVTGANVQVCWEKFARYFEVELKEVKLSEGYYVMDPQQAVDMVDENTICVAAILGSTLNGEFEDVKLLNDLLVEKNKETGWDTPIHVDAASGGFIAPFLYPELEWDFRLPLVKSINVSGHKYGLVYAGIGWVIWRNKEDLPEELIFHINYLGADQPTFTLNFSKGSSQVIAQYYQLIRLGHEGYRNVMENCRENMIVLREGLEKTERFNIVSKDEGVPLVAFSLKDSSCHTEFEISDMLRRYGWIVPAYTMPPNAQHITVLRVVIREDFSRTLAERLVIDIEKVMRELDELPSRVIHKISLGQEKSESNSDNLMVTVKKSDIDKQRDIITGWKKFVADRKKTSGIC

[4] = target: PTAC17 (PLASTID …ONALLY ACTIVE17) (Arabidopsis thaliana); assay: TAP-MS, N-terminal GS tag
[5] = target: SNF2 protein (BRM) (Arabidopsis thaliana); assay: TAP-MS, N-terminal GS tag
[6] = target: T3, actin-related protein 7 (ARP7) (Arabidopsis thaliana); assay: TAP-MS, N-terminal GS tag
T3 sequence (Q8L4Y5 1-363, looked up): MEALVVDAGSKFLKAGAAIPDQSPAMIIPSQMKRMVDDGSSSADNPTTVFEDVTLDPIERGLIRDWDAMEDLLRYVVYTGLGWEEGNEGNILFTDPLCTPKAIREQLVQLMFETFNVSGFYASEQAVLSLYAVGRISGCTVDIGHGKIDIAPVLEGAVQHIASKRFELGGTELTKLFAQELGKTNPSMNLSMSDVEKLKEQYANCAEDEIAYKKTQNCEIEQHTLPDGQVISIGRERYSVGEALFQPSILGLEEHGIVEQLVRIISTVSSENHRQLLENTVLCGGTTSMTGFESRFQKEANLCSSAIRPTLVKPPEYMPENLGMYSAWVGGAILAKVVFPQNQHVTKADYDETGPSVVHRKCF

[7] = target: acyl-(acyl-carrier-protein) desaturase (AT1G43800) (Arabidopsis thaliana); assay: TAP-MS, N-terminal GS tag
[8] = target: chromatin remodeling protein (SYD) (Arabidopsis thaliana); assay: TAP-MS, N-terminal GS tag
[9] = target: expressed protein, similar to DAG protein (AT3G15000) (Arabidopsis thaliana); assay: TAP-MS, N-terminal GS tag
[10] = target: importin alpha-2 (IMPA2) (Arabidopsis thaliana); assay: TAP-MS, N-terminal GS tag
[11] = target: DNA-binding bromodomain-containing protein (AT1G20670) (Arabidopsis thaliana); assay: TAP-MS, C-terminal GS tag
[12] = target: DNA-binding bromodomain-containing protein, similar to At1g20670 (AT1G76380) (Arabidopsis thaliana); assay: TAP-MS, C-terminal GS tag
[13] = target: DNA-binding bromodomain-containing protein, similar to At1g20670 (AT5G55040) (Arabidopsis thaliana); assay: TAP-MS, C-terminal GS tag
[14] = target: RD21 (RESPONSIVE TO …ON 21) (Arabidopsis thaliana); assay: TAP-MS, C-terminal GS tag
[15] = target: T4, SE (SERRATE) (Arabidopsis thaliana); assay: TAP-MS, C-terminal GS tag
T4 sequence (Q9ZVD0 1-720, looked up): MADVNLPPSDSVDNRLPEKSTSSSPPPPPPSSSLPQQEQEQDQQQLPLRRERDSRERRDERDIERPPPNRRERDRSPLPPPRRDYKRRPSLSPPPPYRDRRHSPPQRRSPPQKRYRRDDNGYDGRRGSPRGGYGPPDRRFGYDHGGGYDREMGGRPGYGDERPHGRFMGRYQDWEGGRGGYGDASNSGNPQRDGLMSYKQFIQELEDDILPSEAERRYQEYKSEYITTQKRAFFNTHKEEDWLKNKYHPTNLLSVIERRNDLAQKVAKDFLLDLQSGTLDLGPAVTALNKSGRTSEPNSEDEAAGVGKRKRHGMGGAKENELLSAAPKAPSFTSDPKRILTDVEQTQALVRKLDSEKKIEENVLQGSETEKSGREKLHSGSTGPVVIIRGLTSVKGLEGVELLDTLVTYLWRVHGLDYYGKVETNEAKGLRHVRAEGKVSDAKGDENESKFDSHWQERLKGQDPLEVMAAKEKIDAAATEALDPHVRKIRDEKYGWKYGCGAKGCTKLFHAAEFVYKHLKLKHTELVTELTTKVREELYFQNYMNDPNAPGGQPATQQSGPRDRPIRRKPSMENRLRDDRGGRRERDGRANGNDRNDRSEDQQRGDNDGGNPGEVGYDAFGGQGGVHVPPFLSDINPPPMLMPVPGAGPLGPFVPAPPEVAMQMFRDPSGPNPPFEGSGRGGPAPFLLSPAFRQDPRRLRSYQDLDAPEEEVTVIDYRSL

[16] = target: SNF2 protein (BRM) (Arabidopsis thaliana); assay: TAP-MS, C-terminal GS tag
[17] = target: SWIB complex BAF60b domain-containing protein (Swp73B) (Arabidopsis thaliana); assay: TAP-MS, C-terminal GS tag
[18] = target: T5, SWIRM domain-containing protein (SWI3C) (Arabidopsis thaliana); assay: TAP-MS, C-terminal GS tag
T5 sequence (Q9XI07 1-807, looked up): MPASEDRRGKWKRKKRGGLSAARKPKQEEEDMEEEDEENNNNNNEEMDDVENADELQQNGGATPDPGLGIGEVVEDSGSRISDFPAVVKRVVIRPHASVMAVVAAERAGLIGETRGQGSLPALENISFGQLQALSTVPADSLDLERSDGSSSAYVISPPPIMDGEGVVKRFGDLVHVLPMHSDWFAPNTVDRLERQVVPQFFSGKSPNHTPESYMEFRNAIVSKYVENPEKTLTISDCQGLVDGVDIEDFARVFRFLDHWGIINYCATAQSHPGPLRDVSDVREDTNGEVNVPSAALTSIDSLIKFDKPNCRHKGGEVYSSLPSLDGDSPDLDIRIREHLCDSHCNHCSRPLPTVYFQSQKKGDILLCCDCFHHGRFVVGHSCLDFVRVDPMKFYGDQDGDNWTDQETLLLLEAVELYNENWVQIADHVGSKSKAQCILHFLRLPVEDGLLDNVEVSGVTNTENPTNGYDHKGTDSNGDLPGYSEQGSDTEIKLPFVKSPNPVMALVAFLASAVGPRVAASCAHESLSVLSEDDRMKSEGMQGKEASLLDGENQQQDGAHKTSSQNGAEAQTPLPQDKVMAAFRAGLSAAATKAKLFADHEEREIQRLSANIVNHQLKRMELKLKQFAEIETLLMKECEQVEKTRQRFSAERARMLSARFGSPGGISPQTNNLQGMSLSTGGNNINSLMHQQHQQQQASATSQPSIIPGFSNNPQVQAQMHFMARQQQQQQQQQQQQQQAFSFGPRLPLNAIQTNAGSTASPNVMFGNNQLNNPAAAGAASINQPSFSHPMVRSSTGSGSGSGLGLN

[19] = target: Swp73A (Arabidopsis thaliana); assay: TAP-MS, C-terminal GS tag
[20] = target: T3, actin-related protein 7 (ARP7) (Arabidopsis thaliana); assay: TAP-MS, C-terminal GS tag
[21] = target: expressed protein, similar to At3g03460 (AT5G17510) (Arabidopsis thaliana); assay: TAP-MS, C-terminal GS tag
[22] = target: expressed protein, similar to At4g22320 (AT5G55210) (Arabidopsis thaliana); assay: TAP-MS, C-terminal GS tag
[23] = target: unknown protein, similar to At5g17510 (AT3G03460) (Arabidopsis thaliana); assay: TAP-MS, C-terminal GS tag

B1: GS-AN3 (protein, UniProt Q8L8A5 1-210, looked up)
GRF1-interacting factor 1: MQQHLMQMQPMMAGYYPSNVTSDHIQQYLDENKSLILKIVESQNSGKLSECAENQARLQRNLMYLAAIADSQPQPPSVHSQYGSAGGGMIQGEGGSHYLQQQQATQQQQMTQQSLMAARSSMLYAQQQQQQQPYATLQHQQLHHSQLGMSSSSGGGGSSGLHILQGEAGGFHDFGRGKPEMGSGGGGEGRGGSSGDGGETLYLKSSDDGN
modifications: N-terminal GS tag
Work on B1 yielded a N-GS (times co-purified) [1] of 2, a N-GS (times co-purified) [2] of 2 and a N-GS (times co-purified) [3] of 1. It also gave a N-GS (times co-purified) [4] of 1, a N-GS (times co-purified) [5] of 2 and a N-GS (times co-purified) [6] of 3. It also gave a N-GS (times co-purified) [7] of 1, a N-GS (times co-purified) [8] of 4 and a N-GS (times co-purified) [9] of 3. It also gave a N-GS (times co-purified) [10] of 1.

B2: ARP4-GS (protein, UniProt Q84M92 1-441, looked up)
Actin-related protein 4: MYGGDEVSAIVVDLGSHTCKAGYAGEDAPKAVFPSVIGAVDGVEAMDVDVDSTKTNSNSEDSKTESEKEKSKRKLYVGSQAMSYRRDHMEVLSPIKDGIVSDWDLVDNIWEHAFKSCLMIDPTEHPMLLAEPPLNTQQQREKAAELMFEKYKVPALFMAKNPVLTSFATGRATSLVVDCGGGSTTISPVHDGYVLQKAVVSSPLGGEFLTDCLLKSLESKGIKIRPRYSFKRKEVRAGEFQVEDVDIPDTTESYKLFCQRMIVGDIKDSICRVPDTPYDDKSYSNIPTTSYELPDGQTLEIGADRFKVPDVMFNPSIVQTIPGMEKYAEMIPSVRGLPHMVMESINKCDVDIRRELYSSILLAGGTSSMQQLKERLEKDLIEESPHSARVKVLASGNTTERRFSVWIGGSILASLGSFQQMWFSKSEYEEHGASYIQRKCP
modifications: C-terminal GS tag
B2 showed a C-GS (times co-purified) [11] of 2, a C-GS (times co-purified) [12] of 2 and a C-GS (times co-purified) [13] of 1. It also gave a C-GS (times co-purified) [14] of 2, a C-GS (times co-purified) [15] of 1 and a C-GS (times co-purified) [16] of 2. For the same binder, the C-GS (times co-purified) [17] was 2, the C-GS (times co-purified) [18] was 2 and the C-GS (times co-purified) [19] was 2. The C-GS (times co-purified) [20] was 2, the C-GS (times co-purified) [21] was 2 and the C-GS (times co-purified) [22] was 1. It also gave a C-GS (times co-purified) [23] of 1.
